For two substances, inhibition of infection by HCVpp of genotypes 1a and 1b (target cells pre-incubated with antibody and inhibition of infectivity of HCVpp on Huh-7 cells (polypeptide results are on record in patent publication EP1454989A1.

The target of one test is human CD81 (human) (UniProt P60033). The test is described as follows: cell-based or functional assay.
Test [1] concerns the target HCV E2 glycoprotein of genotype 1a (hepatitis C virus genotype 1a) (UniProt P27958). The test is described as follows: cell-based or functional assay.

Turning to JS-81 anti-CD81 monoclonal antibody, the inhibition of infection by HCVpp of genotypes 1a and 1b (target cells pre-incubated with antibody at 30 µg/ml) with human CD81 (human) was > 90%. Turning to “recombinant GST-fusion polypeptide encompassing the large extra-cellular loop (LEL) of human CD81 (from UniProt P60033 113-201)”, the inhibition of infectivity of HCVpp on Huh-7 cells (polypeptide at 4, 8, 16 µg/ml pre-incubated with the pseudo-particles) in test [1] lay in the range of 38 to 54%.
